Measured values published in patent US20250263490A1 (VIB VZW, published 2025).
Residue numbers refer to the chain shown, from its start. Read-outs that look alike come from different tables or passages of the source.

T1: E148R
T1 construct: also called human CI-M6PR Dom1-3His6 E148F
T1 chain: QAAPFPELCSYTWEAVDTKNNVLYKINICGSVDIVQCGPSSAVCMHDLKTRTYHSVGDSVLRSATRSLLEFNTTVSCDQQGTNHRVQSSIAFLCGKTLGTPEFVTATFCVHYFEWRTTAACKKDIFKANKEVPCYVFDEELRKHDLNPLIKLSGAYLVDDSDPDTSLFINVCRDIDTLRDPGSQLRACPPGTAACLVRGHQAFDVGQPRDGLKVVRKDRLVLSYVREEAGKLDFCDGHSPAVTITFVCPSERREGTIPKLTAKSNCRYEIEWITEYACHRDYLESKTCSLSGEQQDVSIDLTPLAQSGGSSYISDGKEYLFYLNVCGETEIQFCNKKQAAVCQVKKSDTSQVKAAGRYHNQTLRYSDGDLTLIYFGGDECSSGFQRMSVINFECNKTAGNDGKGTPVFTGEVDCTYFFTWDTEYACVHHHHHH

T2: K89D
T2 construct: also called human CI-M6PR Dom1-3His6 K89D
T2 chain: T1 chain with K49D, F108E

B1: anti-CI-M6PR VHH 1H11 (VHH)
VHH: QVQLQESGGGLVQPGGSLRLSCAASGIIFSDNRMDWYRQAPGKQREWVATLASYGWKTYADSVKDRFTISRDNAKNTVNLYMNSLQPEDTAVYYCNSGQYWGQGTQVTVSS
notes: made in E. coli WK6, His-tag purified
B2: anti-CI-M6PR VHH8 (VHH)
VHH: QVQLQESGGGLVQAGGSLRLSCEASGRTFNTYNWGWFRQAPGKEREFVAAIRWSSSKTSYADSVKGRFTISRDNAKNTIYLQMNSLKPEDTAVYYCAASIVDFTTNPSHFGSWGQGTQVTVSS
notes: His6-tagged (Pichia pastoris)
B3: anti-CI-M6PR VHH1 (VHH)
VHH: QVQLQESGGGLVQPGGSLRLSCVASGFTFDRYWMNWLRQIPGKEIEWVSTINTGGTGTYYDDSVKGRFSISRDDAKNTLYLTMNSLKTEDTAVYYCARGATYYRGNSAIRGQGTQVTVSS
notes: His6-tagged; made in Pichia pastoris, later also in E. coli WK6
B4: anti-CI-M6PR VHH7 (VHH)
VHH: QVQLQESGGGLVQPGGSLRLSCAASGIIFSDNRMDWYRQAPGKQREWVATLASYGWKTYADSVKGRFTISRDNTKNTVYLRMNSLKPEDTAVYYCKASSPVLNDIWGQGTQVTVSS
notes: His6-tagged (Pichia pastoris)
B5: anti-CI-M6PR VHH5 (VHH)
VHH: QVQLQESGGGLVQAGGSLKLSCAAAGRTFSRLAMGWFRQAPGKEREFVAAISENGDSIHYSDSVKGRFAVSRDNAKNTVYLQMNSLKPEDTAIYYCAADRAAYYCSGSGCYPSRAPAAASYDYWGQGTQVTVSS
notes: as for B3

How the values were obtained:
E148R = target: T1, E148R; assay: ELISA on coated antigen (100 ng; labelled E148R on the sheet, E148F in the text), anti-VHH-HRP, A450
Procedure: (§1) To determine the effect of site-directed mutations, an ELISA was performed. To this end, 100 ng of each successfully purified mutant was coated per well on Nunc Maxisorp plates in 50 mM MES, 150 mM NaCl, pH 6.5 buffer overnight at 4° C. […] Coating-only controls were included for background correction. […] Reactions were stopped after five minutes using a 2N H₂SO₄ solution and plates were read at 450 nm, with a 655 nm background correction. Data were analyzed using the GraphPad Prism 9 software.

[1] = target: T3, recombinant human domain 1-3His6 of the cation-independent mannose-6-phosphate receptor (human, UniProt P11717 41-467); assay: ELISA on coated antigen (100 ng), anti-VHH-HRP, A450
T3 construct: Biotinylated (NHS-PEG4-biotin) for BLI; Glycosylated; also called hDom1-3His6; hCI-M6PRD1-D3
Procedure: as §1

K89D = target: T2, K89D; assay: as above
Procedure: as §1

[2] = target: T3, recombinant human domain 1-3His6 of the …; assay: as above; remark: listed apart in the source
Procedure: as §1

[3] = target: T3, recombinant human domain 1-3His6 of the …; assay: ELISA on coated human CI-M6PRD1-D3, non-linear fit of the curves of FIG 36A
Procedure: FIGS. 36A-C. […] (FIG. 36A) ELISA assay in which each construct was serially diluted and incubated on human CI-M6PR_D1-D3 and the detected absorbance (Abs) at 450 nm was set out in function of concentration. […] Graphs created in Graphpad Prism 9.0.0.

[4] = target: T3, recombinant human domain 1-3His6 of the …; assay: BLI exp 2, dissoc pH 6.5
[5] = target: human cation-independent mannose-6-phosphate receptor, native, on cells (human, UniProt P11717 41-2491); assay: cell-based or functional assay
[6] = target: T3, recombinant human domain 1-3His6 of the …; assay: BLI exp 2, dissoc pH 5.5
Procedure: For each of the 11 anti-CI-M6PR VHHs, a biolayer interferometry (BLI) experiment was performed in which the hDom₁₋₃His₆ was biotinylated and coupled to streptavidin biosensor tips. Afterwards, the tips were incubated with serially diluted VHHs during the association phase and dissociation was performed at pH 7.4. Similarly, dissociation was performed at pH 7.0, pH 6.0 and pH 5.0 as well after regeneration of the biosensor tips. […] The anti-CI-M6PR antibody (clone 2G11) and GBP were used as positive and negative controls, respectively.
Analysis of the binding kinetics was performed using an Octet Red96 (FortéBio) device with Streptavidin SA Biosensor tips (VWR, 733-2145). To this end, 1 mL of hCI-M6PR_D1-D3 (0.5 mg/mL in 50 mM MES, 150 mM NaCl, pH 6.5) was incubated at room temperature for 30 minutes with a two-fold molar excesses of EZ-Link™ NHS-PEG₄-Biotin (Thermo Fischer, A39259) and NaHCO₃ (100 mM, pH 8.3). Biotinylated hCIMPR_D1-D3 was purified using a Zeba spin desalting column (Thermo Fischer, 89890) and protein concentration was calculated by measuring the absorbance at 280 nm (extinction coefficient 50320 M¹ cm⁻¹). Two-fold biotin-labelled antigen was loaded on the tips (2.5 μg/mL) and subsequently dipped into a particular anti-CI-M6PR VHH-containing solution (ranging from 0-100 nM). Serial VHH dilutions were made in kinetics buffer (0.2 M Na₂HPO₄, 0.1 M Na⁺ citrate, 0.01% BSA, 0.002% Tween20, pH 7.4). After association (100 sec), dissociation was conducted (500 sec) for each anti-CI-M6PR VHH in the kinetics buffer, followed by biosensor regeneration in glycine (10 mM, pH 3) and neutralisation. The same cycle was repeated with dissociation performed in kinetics buffer of pH 7.0, 6.5, 6.0, 5.5, and 5.0.
A reference well and reference sensors were subtracted from ligand sensors afterwards and Savitsky-Golay filtering was applied on the data. Fitting of the data was performed using a 1:1 model, grouped per dissociation pH.

Binder	EC50 (read off the curve) (E148R)	EC50 (read off the curve) [1]	EC50 (read off the curve) (K89D)	EC50 (read off the curve) [2]	EC50 [3]	koff [4]	kon [4]	internalisation rate (live-cell imaging of AF488-VHH on MCF7 cells) [5]	koff [6]	kon [6]
B1	~9 nM	~0.4 nM	~0.7 nM	~0.4 nM	–	–	–	–	–	–
B2	~3 nM	~3 nM	~3 nM	~3 nM	0.16 nM	0.0007 s⁻¹	1.2e+06 M⁻¹ s⁻¹	673000 summed AF-voxels/minute	0.0025 s⁻¹	1.9e+08 M⁻¹ s⁻¹
B3	–	~10 nM	–	~10 nM	19 nM	0.011 s⁻¹	1.1e+06 M⁻¹ s⁻¹	1.38e+06 summed AF-voxels/minute	0.04 s⁻¹	47000 M⁻¹ s⁻¹
B4	–	~0.3 nM	–	~0.3 nM	0.45 nM	0.02 s⁻¹	430000 M⁻¹ s⁻¹	1.26e+06 summed AF-voxels/minute	0.027 s⁻¹	35000 M⁻¹ s⁻¹
B5	~2 nM	~2 nM	~2 nM	~2 nM	65 nM	–	–	687000 summed AF-voxels/minute	–	–
